Results reported in PMC5666081, “Solution structure of CXCL13 and heparan sulfate binding show that GAG binding site and cellular signalling rely on distinct domains” (Open Biology, 2017).

Target: T1, ΔN-CXCL13 (murine CXCL13 residues 31-109 with the initiating methionine) (murine)
T1 chain: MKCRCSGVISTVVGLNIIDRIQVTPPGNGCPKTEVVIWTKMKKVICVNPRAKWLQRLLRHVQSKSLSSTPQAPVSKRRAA
Experiment: NMR titration; [15N,1H] correlation spectra at different protein concentrations; monomer and dimer signals in slow exchange; KD of dimer to monomers from integrated signals of monomer and dimer; T1/T2 relaxation; 20 mM phosphate, 100 mM NaCl, pH 6, 298 K; addition of HS tetrasaccharide dp4 (50 µM on 50 µM ΔN-CXCL13) increases the dimer signals
Conditions: both partners purified

B1: ΔN-CXCL13 (murine CXCL13 residues 31-109 with the initiating methionine) (domain or fragment)
chain: T1 chain
modifications: initiating Met kept (piece 1); paper residue numbers are mature, offset +21 to the precursor; two disulfides expected from the chemokine fold / initiating Met kept (piece 1); paper residue numbers …
  Kd: 300 ± 100 µM
  stoichiometry N: 2
